Results published in the nanobody polyreactivity screen of Harvey et al. (2022).

Assay: yeast display, Sf9 membrane polyspecificity reagent, FACS + sequencing; frameworks hold sequencing errors
Procedure, shortened: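 Nanobodies came from a synthetic yeast display library in Saccharomyces cerevisiae BJ5465, induced with galactose for 36–48 hours and stained for 1 hour at 4 °C with 10% biotinylated, detergent-solubilized Sf9 membrane reagent. Cells were enriched on streptavidin microbeads and then FACS-sorted, with low and high (top ~1%) gates set on anti-HA fluorescence for expression and streptavidin fluorescence for reagent binding. Each polyreactivity label reflects the gate a clone came from. Genes were amplified by colony PCR, sequenced by MiSeq 2 × 250 and filtered by CDR length.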

Row | Sequence | polyreactivity (PSR sort gate)
1 | QVQLVESGGGLVQAGGSLRLSCAASGSTIGFYAMGWYRQAPGKERELVAANSWTGGGTYYADSVKGRFTISRDNAKITVYLQMNSLKPEDTAVYYCARLYYFNGDFWGQGTQVTVSS | high polyreactivity
2 | QVQHVESGGGLVQAGGSLRLSCASSGRIFYFYAMGWYRQAPGKLRELVAAISTSGGSTYYADSVKGRFKISRDNATNTVYLQMNSLKPEDPAVYYCAGRFRYYGSEYDYWGQGTQVTVSS | low polyreactivity
3 | QVQLVESGGGLVQAGGSLRLSCAASGFTIYRYAMGWSRQAPGKERELVAAISGGGSRTYYADSVKGRFTISRDNAKNTVYLLMNSLKPEDTAVYYCNADPVKYSYDGYARPRYDYWGQGTQVTVSS | low polyreactivity
4 | QVQLVESGGGLVQAGGSLRLSCAASGIIFSGYAMGWYRQAPGKERELVAAITGSGDITYYADSVKGRFTISRDNAKNTVYLQMNSLKPEDTAVYYCADVASSQYRAEEYNYWGQGTQVTVSS | low polyreactivity
5 | QVQLQESGGGLVQAGGSLRLSCAASGSISHYIFRGWYRQAPGKEPEFVAGIGYGGTTNYADSVKGRFTISRDNAKNTVYLQMNSLKPEDTAMYYCAAREATEFYLYYWGQGTQVTVIS | low polyreactivity
6 | QVQRVDSGGGLVQAGGSLRLICAASGFTFKYYAMGWYRQAPGKERELVAAITRGGDTYYADSVMGRFTISRDNAKNTVYLQMNRLKPEETAVYYCNTASDKRAFDYWGQGTQLTVSS | low polyreactivity
7 | QVQLVESGGGLVQAGGSLRLSCAASGSIFLHNAMGWYRQAPGKERELVAVITSRGGSTYYADSVKGRFTISRDNAKNTVYLQMNSLKPEDTAVYYCAADSRQSDYYYQPTKIDYWGQGTQVTVSS | low polyreactivity
8 | QVQLVESGGGLVQAGGSLRLSCAASGRTFVSYAMGWYRQAPGKERELVAGITWRGGSTYYADSVKGRFTISRDNAKNTVYLQMNSLTPEDTAVYYCAKRSVLYGNRIFDYWGQGTQVTVSS | high polyreactivity
9 | KVQLVESGGGLVQAGGSLRISCAASGITFNPYAMGWYRQAAGKERELVAAISRRGGSTNYADSVKGRFTISRDNAKNTVYLQMNSLKPEDTAVYDCNRDYPIGYRHDPVYYWGQGTQVTVSS | high polyreactivity
10 | QVQLEESGGGLVQAGGSHRLSCAASGSIFGPNAMGWSRQAPGKERELVAAISWTGGRTYYADSVKGRFTISRDNAYNTVYLQMNSLKPEDTAVYDCAVKGHPCGQGTQVTVSS | low polyreactivity
11 | QVQLVESGGGLVQAGGSLRLSCAASGSTFDINAMGWYRQAPGKERELVAAITDSGGSTHYADSVKGRFTISRDNAKNTVSLQMNSLKPEDTAVYYCNADDYLVYAGSHYGYWGQGTQVTVSS | low polyreactivity
12 | QVQLVESGGGLVQAGGSLRLSCAASGFIIAYYAMGWYRQAPGKEREWVAAITSDGGSTYYADSVKGRFTISRDNAKNTVYLQMNSLKPEDTAVYYCAAQGYPYGRLWGGYYRYDYWGQGTQVTVSS | high polyreactivity
13 | QVQLVESGGGLVQAGGSLRLSCAASGFNFNKNAMGWYIQAPGKERELVASITASGTTTYADSVKGRFTISRDNAKNTVYLQMNSLKPEDTAVYYCAVRTRIWGFYYWGQGTQVTVSS | high polyreactivity
14 | QVQLVESGGGLVQAGGSLRLSCAASGSTFGWNAMGWYRQAPGKERELVAAISSRGGSTSYADSVKGRFTISRDNAKNSVYLQMNSLKPEYTAVYYCAAPYVYYRYGYWGLGTQVTVSS | low polyreactivity
15 | KVQLVESGGGLVQAGGSLRLSCADSGIFRYYAMGWYRQAPGKEREFVAAMTRGGSTNYADSVKGRFTISRDNAKNSVYLQMNSLKPEDTEVYYCARDGYREFDWGQGTQVTVSS | high polyreactivity
16 | QVQLVESGGGLVQAGGSLRLSCAASGSIFLSYAMGSYREAPGKERELVATITAGGGSTNYADSVKGRFTISRDNAKNTVYLQMNSLKPEDTAVYYCAAKRLSWHGYGYWGQGTQVTVSS | low polyreactivity
17 | QVQLVESVGGLVQAGGSLRLSCAASGGKFISYAMGRYRQAPRKERELVAAITSSGGSTYDADSVKGRFTISRDDAKNTVYLQMNSLKPEDTGVYYCAADHSTVLDVGSWGQGTQVTVSS | low polyreactivity
18 | QVQLVESVGRLVQAGGSLRLSCAASGRIIYWNAKGWYRQAPGKERELVAGITTGGSTYYADSVKGRFTISRDNAKNTVYLQMNSLKPEDTAVYYCAARPFIRQRYGYWGKGTQVTVSS | high polyreactivity
19 | QVQLVESGGVLVQAGGSLRLSCAASGLIFKFYAMGWYRQAPGKERELVARISSSGGSTYYADSVKGRFTTSRDNAKNTVYLQMNSLKPEDTAVSYCAAGAYYVDRYARSSIFSYYYWGQATQVTVSS | high polyreactivity
20 | QVQLVESGGGLVQAGGSLRLSCAASGSIFGSYVMGWYRQAPGKERELVAAISKSGGRTYYADSVKGRFTISRDNAKNTVYLQMKSLKPEDTAVYYCAVLPRVKDGTGGDYWGHGTQVTVSS | high polyreactivity
21 | QVQLVESGGGLVQAGGSLRLSCAASGRTFYYNAMGSYRQAPGKEREFVAAITWSGTRTYYADSVKGRFTISRDNAKNTVYLQMNSLKPEDTAVYYCAARRGVQGTQYYYWGQGTQVTVSS | high polyreactivity
22 | QVQLVESGGGLVQAGGSLRLSCAASGRIFWVNVMGRYIQAPGKERELVPAITRGASTYADSVKGRFTISRDNAKNTVYLQMNSLKPEDTAVYYCAADTKRRSIRYDYWGEGTQVTVSS | high polyreactivity

Row | Sequence | polyreactivity (PSR sort gate)
23 | QVQLVESGGGLVQAGGSLRLSCAASGRIFYYNAIGWYRQAPGKERELVATITRAGGTYYADSVKGRFTISRDNAKNTVYLQMNSLKPEDTAVYYCAKRHPIVDDYKGDYWGQGTQVTVSS | low polyreactivity
24 | QVQLVESGGGLVQAGGSLRLSCAASGSTFDTYAMGWYRQAPGKERELVAAISVSGTSTSYADSVKGRFTISRDNAKNTVYLQMNSLKPEDTAVYYCNATDFSRNPGYARPEYDYWGQGTQVTVSS | low polyreactivity
25 | QVQLVESGGGLVQAGGSLRLSCAASGRTFNSNAMGWYRQAPGKERELVAAISGRTGRTYYADSVKGRFTISRDNAKNTVYLQMNSLKPEDTAVYYCATGTYAAAQGTRYYYWGQGTQVTVSS | high polyreactivity
26 | QVQLVESGGGLVQAGGSLRLSCAASGFTFYLYAMGWYRQAPGKERELVAAISSGGSTNYADSVKGRFTISRDNAKNTVYLQMNSLKPEDTAVYYCNKRYRRATWWITAYDHWGQGTQVTVSS | high polyreactivity
27 | QVQLVESGGGLVQAGGSLRLSCAASGYILGKNVMGWYRPAPGKERELVAAISSGGRTYYADSVKGRFTISRDNAKNTVYLQMNSLKPEDTAVYYCAPDLKYYGYDYWGQGTQVTVSS | high polyreactivity
28 | QVQLVESGGGLVQAGGSLRLSCAASGSIFAVYVMGWYRQAPGKDRELVAAIRRGGTTTYADSVKGRFTISRDNAKTTVYLQMNSLKPEDTAVYYCAADSYARYLYSYYSPYDYWGQGTQVTVSS | low polyreactivity
29 | QVQLVESGGGLVQAGGSLRLSCAASGSTFPAYAMGWYRQAPGKERELVAAINTSGGNTYYADSVKGRFTISRDNAKNTVYLQMNSLKPEDTAVYYCAADYKARYSEKFDYWGQGTQVTVSS | low polyreactivity
30 | QVQLVESGGGLVQAGGSLRLSCAASGLTLYYNAMGWYRQAPGKERELVAAISGSGGNTYYADSVKGRFTISRDNAKNTVYLQMNSLKPEDTAVYYCAKVVRVSHRYYYWGQGTQVTVSS | high polyreactivity
31 | QVQLVQSGGGLVQAGGRLSLSCAASGYIFFTNAMGWYRQAPGKERELVAAISSAGRTKYADSVKGRFTISRDNAKNTVYIQMNSLIPEDTAVYYCNKSFYYRWGTGYDYWGQGTQVTVSS | low polyreactivity
32 | QVQLVESGGGLVQAGGSLRLSCAASGSTFTNYAMGWYRQAPGKERELLAAINNDRTNYADSVKGRFTISRDNAMNTVYLQMNSLKPEDTAVYYCAARLGGRRRFGYWGQGTQVTVSS | high polyreactivity
33 | QDQLVDSGGGLVQAGGSLSLSCAASGSILRTYAMGWYRQAPGKERELVAAISYRGVSTYYADSVKGRFTISRDNAKNTVYLQMNSLKPEDTAVYYCAADQLSDEYDYWGQGTQVTVSS | high polyreactivity
34 | QVQLVDSGGGLVQAGGSLRLSCAASGLTFYSNAMGWYRQAPGKEREFVASITRRTGITFYAVSVKGRFTISRDNAKNTVYLQMNSLKPYDTAVYYCATRGGYPKGYGYLAFNYWGQGTQVTVSS | high polyreactivity
35 | QVQLVESGGGLVQAGGSLRLSCAASGSTFTKNAMGWYRQAPGKERELVVVINRSGTSTYYADSVKGRFTISRDNAKNTVYLQMNSLKPEDTAVYYCATKYARTAGGGYYWGQGTQVTVSS | high polyreactivity
36 | HVQLVESGGGLFQAGGRLRVSCAASGNTIWGNAMGGSRQAPGKEREVVAAITGGGDTNYADSVKGRFTISRDNAKNTVYLQMNSLKPEDTAVYYCAADSSEWLLKDDYWGQGTQVTVSS | low polyreactivity
37 | QVQLVESGGGLVQAGGSLRLSCAASGSIFFVYDMGWYRQAPGKERELVAGIRWSGGRTSYADSVKGRFTISRDNAKNTVYLQMNRLKPEDAAVYYCAADPRSYFTSEYWGQGTQVTVSS | high polyreactivity
38 | QVQLVESGGGLVQAGGSLRLSCAASGRIFSWNAMGWYRQAPGKERELVAAITIGGGTYYADSVKGRFTISRDNAKNTVYLQMNSLKPEDTAVYYCNAYRRKLWYPTGMYWGQGTQVTVSS | high polyreactivity
39 | QVQLVESGGGLVQAGGSLRLSCAASGRIFDGYAIGWYRQAPGKERELVAAISSRGGRTYYADSVKGRFTISRDNAKNTVYLQMNSLKPEDTAVYYCAAVDPYGEGDYWGQGTQVTVSS | low polyreactivity
40 | QFQLVESGGGLVQAGGSLRLSCAASGSTFYPNSMGWYRQAPGKEMELVAAISSGGSTSYADSVKGRFTISRDNAKNTVYLQMNSLKPEDTAVYYCNASSPGAVPVYDYDYWGQGTQVTVSS | low polyreactivity
41 | QVQLVESGGGLVQAGGSLRLSCAASGRIFHSYTMGWYRQAPGKERELVAAINWSGTRTYYADSVKGRFTISRDNAKNTVYLQMNSLKPEDTAVYYCNRVGVTRSYRYDYWGQGTQVTVSS | high polyreactivity
42 | QVQLVESGGGLVQAGGSLRLSCAASGAIFYYYCMGWYRQAPGKEREWVAGISSRGGRTYYADSVKGRFTISRDNAKNTVYLQMNSLKPVDTAVYYCAADRYYYAYRYFPSGYWGQGTQVTVSS | low polyreactivity
43 | QVQLVESGGGLVQAGGSLRLSCAAAGLIFRFYAMGWYRQSPGKERELVAAISSRGGSRYYADSVKGRFTISRDNAKNTVYLQMNSLKPEDTAVYYCAAAVRKMAYPHYEYGYWGQGTQVTVSS | high polyreactivity
